In the RNAGym collection of RNA variant scans (doi:10.7554/elife.80360) one finds self-cleavage data, which are given here for 167 variants.

The labels stand for the following.
B1: Hammerhead Ribozyme (parent)
chain: ACCGGAUGUGCUUUCCGGUCUGAUGAGUCCGUGAGGACGAAACAG

This data set covers variants of B1. Put plainly: self-cleavage, relative activity (ratio to wild type); higher = more cleavage; co-transcriptional.
As to G5C G35U, the self-cleavage stood at 0.376.

As for G5U A42G, the self-cleavage is 0.352.

With G5U A42C, the self-cleavage is 0.327.

As to G5U A42U, the self-cleavage worked out at 0.323.

As for G5A G39A, the self-cleavage is 0.353.

As for G5A G39U, the self-cleavage is 0.329.

Turning to G5A G39C, the self-cleavage is 0.328.

G5A C15A: the self-cleavage was determined as 1.32.

In the case of G5A C15G, the self-cleavage stood at 1.53.

With G5A C15U, the self-cleavage was 1.78.

Turning to G5C A23U, the self-cleavage was determined as 0.221.

For G5C A23G, the self-cleavage was found to be 0.324.

As to G5C A23C, the self-cleavage was found to be 0.326.

Take G5A G18C: the self-cleavage is 0.386.

Take G5A G18A: the self-cleavage turned out to be 0.47.

Regarding G5A G18U, the self-cleavage was determined as 0.371.

Take G5U C15G: the self-cleavage turned out to be 1.15.

Consider G5U C15U, for which the self-cleavage came to 1.17.

For G5U C15A, the self-cleavage was found to be 1.43.

With G5A U14C, the self-cleavage is 1.49.

In the case of G5A U14G, the self-cleavage is 1.41.

For G5A U14A, the self-cleavage came to 1.58.

As for G5U G18A, the self-cleavage was 0.334.

On to G5U G18U, for which the self-cleavage came out at 0.343.

Consider G5U G18C, for which the self-cleavage is 0.33.

G5U A41G: the self-cleavage amounted to 0.316.

With G5U A41U, the self-cleavage was found to be 0.332.

On to G5U A41C, for which the self-cleavage worked out at 0.402.

For G5C C29A, the self-cleavage was determined as 0.256.

As for G5C C29G, the self-cleavage came to 0.344.

In the case of G5C C29U, the self-cleavage was 0.504.

For the variant G5C U19A, the self-cleavage was determined as 0.344.

With G5C U19G, the self-cleavage is 0.281.

For G5C U19C, the self-cleavage amounted to 0.269.

G5U G22A: the self-cleavage was 0.269.

For the variant G5U A23G, the self-cleavage was determined as 0.287.

Regarding G5U A23C, the self-cleavage came to 0.339.

With G5U A23U, the self-cleavage was 0.356.

With G5A A41U, the self-cleavage came to 0.327.

In the case of G5A A41C, the self-cleavage came to 0.325.

Regarding G5A A41G, the self-cleavage is 0.327.

G5A U28C: the self-cleavage turned out to be 0.654.

For G5A U28G, the self-cleavage amounted to 0.377.

Consider G5A U28A, for which the self-cleavage is 0.364.

On to G5A G45U, for which the self-cleavage stood at 0.587.

With G5A G45A, the self-cleavage is 0.61.

In the case of G5A G45C, the self-cleavage was found to be 0.554.

As for G5U C20U, the self-cleavage came to 0.595.

As for G5U C20G, the self-cleavage amounted to 0.333.

For G5U C20A, the self-cleavage was 0.292.

As for G5C G25A, the self-cleavage stood at 0.305.

In the case of G5C G25U, the self-cleavage amounted to 0.307.

In the case of G5C G25C, the self-cleavage was found to be 0.397.

Consider G5C C43U, for which the self-cleavage is 0.316.

Regarding G5C C43G, the self-cleavage was 0.33.

As to G5C C43A, the self-cleavage worked out at 0.294.

As to G5U C30G, the self-cleavage came out at 0.445.

In the case of G5U C30U, the self-cleavage turned out to be 0.967.

On to G5U C30A, for which the self-cleavage was determined as 0.795.

Consider G5C A40C, for which the self-cleavage came to 0.325.

For the variant G5C A40U, the self-cleavage was determined as 0.23.

In the case of G5C A40G, the self-cleavage came to 0.237.

Regarding G5A C43G, the self-cleavage was determined as 0.312.

As to G5A C43U, the self-cleavage is 0.467.

Regarding G5A C43A, the self-cleavage is 0.34.

As for G5U G10C, the self-cleavage was found to be 0.708.

Consider G5U G10A, for which the self-cleavage turned out to be 1.29.

With G5U G10U, the self-cleavage worked out at 1.15.

Turning to G5C G31C, the self-cleavage came to 0.613.

Take G5C G31A: the self-cleavage is 0.855.

Take G5C G31U: the self-cleavage is 1.02.

In the case of G5A A44G, the self-cleavage came to 1.29.

As to G5A A44C, the self-cleavage amounted to 0.662.

G5A A44U: the self-cleavage was found to be 0.532.

For G5A U19A, the self-cleavage worked out at 0.382.

As to G5A U19C, the self-cleavage is 0.565.

With G5A U19G, the self-cleavage was 0.373.

Consider G5U C29G, for which the self-cleavage was found to be 0.434.

On to G5U C29A, for which the self-cleavage came out at 0.402.

Consider G5U C29U, for which the self-cleavage came out at 0.682.

Turning to G5A A37U, the self-cleavage was found to be 0.603.

Regarding G5A A37G, the self-cleavage turned out to be 0.773.

Turning to G5A A37C, the self-cleavage was found to be 0.542.

As to G5A U13C, the self-cleavage is 1.6.

As for G5A U13A, the self-cleavage came to 1.68.

G5A U13G: the self-cleavage came to 1.72.

G5U C16U: the self-cleavage came to 0.894.

Regarding G5U C16G, the self-cleavage stood at 0.883.

With G5U C16A, the self-cleavage worked out at 1.11.

With G5A G25A, the self-cleavage was determined as 0.327.

On to G5A G25U, for which the self-cleavage is 0.354.

Regarding G5A G25C, the self-cleavage worked out at 0.268.

Take G5C G17C: the self-cleavage amounted to 0.268.

As for G5C G17A, the self-cleavage is 0.313.

Consider G5C G17U, for which the self-cleavage was determined as 0.381.

G5C G10C: the self-cleavage is 0.441.

G5C G10A: the self-cleavage worked out at 0.638.

As for G5C G10U, the self-cleavage worked out at 0.64.

In the case of G5C U21A, the self-cleavage came to 0.307.

Regarding G5C U21G, the self-cleavage turned out to be 0.367.

For G5C U21C, the self-cleavage stood at 0.507.

On to G5A G10U, for which the self-cleavage worked out at 1.73.

Turning to G5A G10A, the self-cleavage worked out at 1.54.

In the case of G5A G10C, the self-cleavage came out at 1.16.

As for G5U C11G, the self-cleavage is 0.815.

Take G5U C11U: the self-cleavage was found to be 0.458.

For the variant G5U C11A, the self-cleavage stood at 0.919.

G4U U13G: the self-cleavage came out at 0.725.

As for G4U U13A, the self-cleavage came out at 1.14.

With G4U U13C, the self-cleavage worked out at 0.634.

For G5C G36U, the self-cleavage amounted to 0.33.

G5C G36A: the self-cleavage came out at 0.35.

With G5C G36C, the self-cleavage stood at 0.357.

As to G5C G27U, the self-cleavage came to 0.321.

Consider G5C G27A, for which the self-cleavage stood at 0.351.

Regarding G5C G27C, the self-cleavage was 0.354.

As for G5C G39C, the self-cleavage turned out to be 0.312.

As to G5C G39U, the self-cleavage came to 0.251.

Regarding G5C G39A, the self-cleavage was 0.252.

G5C U24C: the self-cleavage was determined as 0.625.

Consider G5C U24A, for which the self-cleavage is 0.648.

Turning to G5C U24G, the self-cleavage amounted to 0.499.

Turning to G5C U28G, the self-cleavage turned out to be 0.345.

In the case of G5C U28A, the self-cleavage was found to be 0.376.

With G5C U28C, the self-cleavage came out at 0.33.

As for G5A A42C, the self-cleavage worked out at 0.359.

With G5A A42G, the self-cleavage is 0.387.

G5A A42U: the self-cleavage worked out at 0.353.

Regarding G5C U12G, the self-cleavage turned out to be 0.773.

Turning to G5C U12A, the self-cleavage came out at 0.788.

With G5C U12C, the self-cleavage is 0.703.

As for G5A G31U, the self-cleavage worked out at 1.61.

As for G5A G31C, the self-cleavage was found to be 1.32.

In the case of G5A G31A, the self-cleavage turned out to be 1.65.

On to G5C U9C, for which the self-cleavage worked out at 0.63.

With G5C U9A, the self-cleavage was found to be 0.595.

Turning to G5C U9G, the self-cleavage was 0.467.

For G5A C30G, the self-cleavage came to 0.597.

Take G5A C30A: the self-cleavage worked out at 1.08.

G5A C30U: the self-cleavage amounted to 1.43.

As for G5C A41C, the self-cleavage came out at 0.249.

As for G5C A41G, the self-cleavage was determined as 0.27.

Take G5C A41U: the self-cleavage came out at 0.326.

Regarding G5A G36U, the self-cleavage is 0.41.

As for G5A G36C, the self-cleavage was found to be 0.384.

Take G5A G36A: the self-cleavage is 0.667.

In the case of G5U C43G, the self-cleavage stood at 0.335.

For the variant G5U C43U, the self-cleavage came to 0.371.

With G5U C43A, the self-cleavage came out at 0.352.

Consider G4U U19C, for which the self-cleavage was found to be 0.345.

Turning to G4U U19G, the self-cleavage turned out to be 0.343.

In the case of G4U U19A, the self-cleavage came to 0.304.

For G5C A26U, the self-cleavage was determined as 0.339.

With G5C A26G, the self-cleavage turned out to be 0.267.

For the variant G5C A26C, the self-cleavage was 0.282.

Regarding G5A G27U, the self-cleavage amounted to 0.538.

In the case of G5A G27C, the self-cleavage was 0.61.

Consider G5A G27A, for which the self-cleavage was 0.776.

Take G4U U9A: the self-cleavage turned out to be 0.395.

G4U U9G: the self-cleavage worked out at 0.368.

Take G4U U9C: the self-cleavage was 0.413.

G5A A40U: the self-cleavage was 0.409.

Take G5A A40C: the self-cleavage amounted to 0.476.

As to G5A A40G, the self-cleavage was 0.379.

As to G5C C15G, the self-cleavage is 1.13.

Regarding G5C C15U, the self-cleavage stood at 1.31.

Turning to G5C C15A, the self-cleavage turned out to be 0.953.
